Measured values taken from patent US20260125446A1 (Eli Lilly, published 2026).

Experiments:
rabbit serum albumin = target: T1, rabbit serum albumin (rabbit, UniProt P49065 25-608); experiment: SPR (Biacore 8K), albumin immobilized on CM5 chip, 25 C
T1 construct: Bought protein, immobilized on a CM5 chip by amine coupling; also called Rabbit SA
Protocol: (§1) The immobilization of the serum albumin to a Series S Sensor Chip CM5 surface is performed according to the manufacturer's instructions (Amine Coupling Kit BR-1000-50). Briefly, carboxyl groups on the sensor chip surfaces (flow cell 1 and 2) are activated by injecting 70 μL of a mixture containing 75 mg/mL EDC and 11.5 mg/mL NHS at 10 μL/min. Human, cynomolgus monkey, mouse, rat, pig, dog, cow and rabbit serum albumin are diluted in 10 mM sodium acetate pH 4.0 (BR-1003-49) at […] and then injected over the activated chip surfaces (flow cell 2, channel 1 to 8) at 10 μL/min for 180 sec (human, mouse, rat, pig and cow serum albumin are obtained from Sigma Aldrich (St. Louis, MO); cynomolgus monkey serum albumin is obtained from Hölzel Diagnostika (Cologne, Germany); dog serum albumin is obtained from Molecular Innovations (Novi, MI); and rabbit serum albumin is obtained from Fitzgerald Industries Intl. (Acton, MA). The various serum albumins are covalently immobilized through free amines onto a carboxymethyl dextran-coated sensor chip CM5 targeting a surface density of about 100 (62-145) RU. Excess reactive groups on the surfaces (flow cell 1 and 2) are deactivated by injecting 70 μL of 1 M ETA HCl—NaOH pH 8.5.
(§2) 150 μl of sample is individually injecting sequentially across the immobilized serum albumins on the chip's surface and dissociating for 600 sec at 50 μL/min flow rate at 25° C. The surface is regenerated by injecting 10 mM glycine-HCl pH 1.5 (BR-1003-54) at 50 μL/min for 100 sec. The resulting sensorgrams are analyzed using Biacore 8K Insight Evaluation Software (version 2.0.15.12933) 1:1 binding kinetics model fitting to calculate the binding kinetic parameter association rate (ka), dissociation rate (kd), and equilibrium dissociation constant (KD).

cow serum albumin = target: T2, cow serum albumin (cow, UniProt P02769 25-607); experiment: SPR (Biacore 8K), albumin immobilized on CM5 chip, 25 C, steady state
T2 construct: Bought protein, immobilized on a CM5 chip by amine coupling; also called Cow SA
Protocol: as §1
150 μl of sample is individually injecting sequentially across the immobilized serum albumins on the chip's surface and dissociating for 600 sec at 50 μL/min flow rate at 25° C. The surface is regenerated by injecting 10 mM glycine-HCl pH 1.5 (BR-1003-54) at 50 μL/min for 100 sec. The resulting sensorgrams are analyzed using Biacore 8K Insight Evaluation Software ([…]).

rat serum albumin = target: T3, rat serum albumin (rat, UniProt P02770 25-608); experiment: SPR (Biacore 8K), albumin immobilized on CM5 chip, 25 C, 1:1 kinetic fit
T3 construct: Bought protein, immobilized on a CM5 chip by amine coupling; also called Rat SA
Protocol: as §1, §2

mouse serum albumin = target: T4, mouse serum albumin (mouse, UniProt P07724 25-608); experiment: as above
T4 construct: Bought protein, immobilized on a CM5 chip by amine coupling; also called Mouse SA
Protocol: as §1, §2

pig serum albumin = target: T5, pig serum albumin (pig, UniProt P08835 25-607); experiment: as above
T5 construct: Bought protein, immobilized on a CM5 chip by amine coupling; also called Pig SA
Protocol: as §1, §2

dog serum albumin = target: T6, dog serum albumin (dog, UniProt P49822 25-608); experiment: as above
T6 construct: Bought protein, immobilized on a CM5 chip by amine coupling; also called Dog SA
Protocol: as §1, §2

[1] = target: T7, cynomolgus monkey serum albumin (cynomolgus monkey, UniProt A2V9Z4 25-608); experiment: as above
T7 construct: Bought protein, immobilized on a CM5 chip by amine coupling; also called Cyno SA
Protocol: as §1, §2

human serum albumin = target: T8, human serum albumin (human, UniProt P02768 25-609); experiment: as above
T8 construct: Bought protein, immobilized on a CM5 chip by amine coupling; also called Human SA
Protocol: as §1, §2

| Binder | binding result (rabbit serum albumin) | Kd (cow serum albumin) | Kd (rat serum albumin) | koff (rat serum albumin) | kon (rat serum albumin) | Kd (mouse serum albumin) | koff (mouse serum albumin) | kon (mouse serum albumin) | Kd (pig serum albumin) | koff (pig serum albumin) | kon (pig serum albumin) | Kd (dog serum albumin) | koff (dog serum albumin) | kon (dog serum albumin) | Kd [1] | koff [1] | kon [1] | Kd (human serum albumin) | koff (human serum albumin) | kon (human serum albumin) |
| --- | --- | --- | --- | --- | --- | --- | --- | --- | --- | --- | --- | --- | --- | --- | --- | --- | --- | --- | --- | --- |
| RLN Analog 11 (other, Single-chain fusion: VHH - (G4Q)5 L1 - RLN2 B chain (desB1) - L2 of thirteen residues - RLN2 A chain (desA1-4)) EVQLLESGGGLVQPGGSLRLSCAASGRYIDETAVAWFRQAPGKEREFVAGIGGGVDITYYADSVKGRFTISRDNSKNTLYLQMNSLRPEDTAVYYCAARPGRPLITSKVADLYPYWGQGTLVTVSSGGGGQGGGGQGGGGQGGGGQGGGGQSWMEEVIKLCGRELVRAQIAICGMSTWSGGGSGGSGGSGGGALANKCCHVGCTKRSLARFC | no binding (tested: 1000 nM (highest concentration tested)) | 27 nM | 1.3 nM | 0.0028 s⁻¹ | 2.1e+06 M⁻¹ s⁻¹ | 3.6 nM | 0.005 s⁻¹ | 1.4e+06 M⁻¹ s⁻¹ | 7.3 nM | 0.0062 s⁻¹ | 850000 M⁻¹ s⁻¹ | 1.3 nM | 0.0017 s⁻¹ | 1.4e+06 M⁻¹ s⁻¹ | 0.48 nM | 0.00064 s⁻¹ | 1.3e+06 M⁻¹ s⁻¹ | 0.17 nM | 0.00021 s⁻¹ | 1.2e+06 M⁻¹ s⁻¹ |
| RLN Analog 12 (other, Single-chain fusion: VHH - (G4Q)5 L1 - RLN2 B chain (desB1) - L2 of thirteen residues - RLN2 A chain (desA1-4)) EVQLLESGGGLVQPGGSLRLSCAASGRYIDETAVAWFRQAPGKGREFVAGIGGGVDITYYADSVKGRFTISRDNSKNTLYLQMNSLRPEDTAVYYCAARPGRPLITSKVADLYPYWGQGTLVTVSSGGGGQGGGGQGGGGQGGGGQGGGGQSWMEEVIKLCGRELVRAQIAICGMSTWSGGGSGGSGGSGGGALANKCCHVGCTKRSLARFC | no binding (tested: 1000 nM (highest concentration tested)) | 30 nM | 1.7 nM | 0.0033 s⁻¹ | 2e+06 M⁻¹ s⁻¹ | 2.6 nM | 0.0049 s⁻¹ | 1.8e+06 M⁻¹ s⁻¹ | 4.2 nM | 0.0058 s⁻¹ | 1.4e+06 M⁻¹ s⁻¹ | 0.77 nM | 0.0016 s⁻¹ | 2.1e+06 M⁻¹ s⁻¹ | 0.47 nM | 0.0007 s⁻¹ | 1.5e+06 M⁻¹ s⁻¹ | 0.14 nM | 0.00019 s⁻¹ | 1.4e+06 M⁻¹ s⁻¹ |
| RLN Analog 3 (other, Single-chain fusion: VHH - (G4Q)5 L1 - RLN2 B chain (desB1) - L2 - RLN2 A chain) EVQLLESGGGLVQPGGSLRLSCAASGRYIDETAVAWFRQAPGKEREFVAGIGGGVDITYYADSVKGRFTISRDNSKNTLYLQMNSLRPEDTAVYYCAARPGRPLITSKVADLYPYWGQGTLVTVSSGGGGQGGGGQGGGGQGGGGQGGGGQSWMEEVIKLCGRELVRAQIAICGMSTWSGGGSGGSGGGQLYSALANKCCHVGCTKRSLARFC | no binding (tested: 1000 nM (highest concentration tested)) | 26 nM | 1.6 nM | 0.0027 s⁻¹ | 1.7e+06 M⁻¹ s⁻¹ | 2.4 nM | 0.004 s⁻¹ | 1.7e+06 M⁻¹ s⁻¹ | 4.8 nM | 0.0053 s⁻¹ | 1.1e+06 M⁻¹ s⁻¹ | 0.7 nM | 0.0014 s⁻¹ | 2e+06 M⁻¹ s⁻¹ | 0.36 nM | 0.00054 s⁻¹ | 1.5e+06 M⁻¹ s⁻¹ | 0.076 nM | 0.00011 s⁻¹ | 1.4e+06 M⁻¹ s⁻¹ |
| RLN Analog 7 (other, Single-chain fusion: VHH - (G4Q)5 L1 - RLN2 B chain (desB1) - L2 - RLN2 A chain) EVQLLESGGGLVQPGGSLRLSCAASGRYIDETAVAWFRQAPGKGREFVAGIGGGVDITYYADSVKGRFTISRDNSKNTLYLQMNSLRPEDTAVYYCAARPGRPLITSKVADLYPYWGQGTLVTVSSGGGGQGGGGQGGGGQGGGGQGGGGQSWMEEVIKLCGRELVRAQIAICGMSTWSGGGSGGSGGGQLYSALANKCCHVGCTKRSLARFC | no binding (tested: 1000 nM (highest concentration tested)) | 25 nM | 1.4 nM | 0.0028 s⁻¹ | 2e+06 M⁻¹ s⁻¹ | 2.1 nM | 0.0041 s⁻¹ | 2e+06 M⁻¹ s⁻¹ | 3.7 nM | 0.0054 s⁻¹ | 1.5e+06 M⁻¹ s⁻¹ | 0.69 nM | 0.0015 s⁻¹ | 2.2e+06 M⁻¹ s⁻¹ | 0.29 nM | 0.00059 s⁻¹ | 2.1e+06 M⁻¹ s⁻¹ | 0.063 nM | 0.00012 s⁻¹ | 1.9e+06 M⁻¹ s⁻¹ |
| RLN Analog 4 (other, Single-chain fusion: VHH - (PGPQ)8 L1 - RLN2 B chain (desB1) - L2 - RLN2 A chain) EVQLLESGGGLVQPGGSLRLSCAASGRYIDETAVAWFRQAPGKEREFVAGIGGGVDITYYADSVKGRFTISRDNSKNTLYLQMNSLRPEDTAVYYCAARPGRPLITSKVADLYPYWGQGTLVTVSSPGPQPGPQPGPQPGPQPGPQPGPQPGPQPGPQSWMEEVIKLCGRELVRAQIAICGMSTWSGGGSGGSGGGQLYSALANKCCHVGCTKRSLARFC | no binding (tested: 1000 nM (highest concentration tested)) | 37 nM | 2.1 nM | 0.0026 s⁻¹ | 1.2e+06 M⁻¹ s⁻¹ | 3 nM | 0.0039 s⁻¹ | 1.3e+06 M⁻¹ s⁻¹ | 6.2 nM | 0.0053 s⁻¹ | 860000 M⁻¹ s⁻¹ | 1 nM | 0.0014 s⁻¹ | 1.4e+06 M⁻¹ s⁻¹ | 0.42 nM | 0.00053 s⁻¹ | 1.3e+06 M⁻¹ s⁻¹ | 0.089 nM | 0.00011 s⁻¹ | 1.2e+06 M⁻¹ s⁻¹ |
| RLN Analog 8 (other, Single-chain fusion: VHH - (PGPQ)8 L1 - RLN2 B chain (desB1) - L2 - RLN2 A chain) EVQLLESGGGLVQPGGSLRLSCAASGRYIDETAVAWFRQAPGKGREFVAGIGGGVDITYYADSVKGRFTISRDNSKNTLYLQMNSLRPEDTAVYYCAARPGRPLITSKVADLYPYWGQGTLVTVSSPGPQPGPQPGPQPGPQPGPQPGPQPGPQPGPQSWMEEVIKLCGRELVRAQIAICGMSTWSGGGSGGSGGGQLYSALANKCCHVGCTKRSLARFC | no binding (tested: 1000 nM (highest concentration tested)) | 21 nM | 1.7 nM | 0.0028 s⁻¹ | 1.6e+06 M⁻¹ s⁻¹ | 1.8 nM | 0.0039 s⁻¹ | 2.2e+06 M⁻¹ s⁻¹ | 4.1 nM | 0.0052 s⁻¹ | 1.3e+06 M⁻¹ s⁻¹ | 0.66 nM | 0.0015 s⁻¹ | 2.3e+06 M⁻¹ s⁻¹ | 0.32 nM | 0.00059 s⁻¹ | 1.9e+06 M⁻¹ s⁻¹ | 0.078 nM | 0.00011 s⁻¹ | 1.5e+06 M⁻¹ s⁻¹ |
| RLN Analog 14 (other, Single-chain fusion: VHH - (PGPQ)8 L1 - RLN2 A chain (desA1-4) - L2 - RLN2 B chain (desB1)) EVQLLESGGGLVQPGGSLRLSCAASGRYIDETAVAWFRQAPGKGREFVAGIGGGVDITYYADSVKGRFTISRDNSKNTLYLQMNSLRPEDTAVYYCAARPGRPLITSKVADLYPYWGQGTLVTVSSPGPQPGPQPGPQPGPQPGPQPGPQPGPQPGPQALANKCCHVGCTKRSLARFCGGGSGGSGGGSWMEEVIKLCGRELVRAQIAICGMSTWS | no binding (tested: 1000 nM (highest concentration tested)) | 34 nM | 2.2 nM | 0.0032 s⁻¹ | 1.4e+06 M⁻¹ s⁻¹ | 3.1 nM | 0.0046 s⁻¹ | 1.5e+06 M⁻¹ s⁻¹ | 6 nM | 0.0058 s⁻¹ | 970000 M⁻¹ s⁻¹ | 1.1 nM | 0.0017 s⁻¹ | 1.5e+06 M⁻¹ s⁻¹ | 0.61 nM | 0.00068 s⁻¹ | 1.1e+06 M⁻¹ s⁻¹ | 0.16 nM | 0.00019 s⁻¹ | 1.2e+06 M⁻¹ s⁻¹ |
